Results as given in article PMC7613265, “Multi-scale ensemble properties of the Escherichia coli RNA degradosome” (Molecular microbiology, 2021).

Molecular target: the molecule itself
Assay: cryo-EM structure; single particle analysis of RNase E (1-529) at 10 uM without RNA, 8 mM CHAPSO; 7.8 A reconstruction, C1

B1: RNase E catalytic domain (1-529) (domain or fragment)
chain: not shown
notes: RNase E, E. coli, catalytic domain, residues 1-529; Studied without RNA; 8 mM CHAPSO added before grid freezing; also called RNase E catalytic core; RNase E (1-529); source: E. coli BL21(DE3), plasmid pRne529-N, purified (Ni chelating column, gel filtration)
stoichiometry N: 4
